# In paper PMC7878476:
# Target: DnaJB8ΔCTD (human)
# Assay: cross-linking; HspA1A in 1× PBS pH 7.4 mixed with 40 μM DnaJB8, JD_(1–82), DnaJB8ΔCTD or DnaJB8F→S; 37 °C, ADH/DMTMM; XL–MS in triplicate
# human Hsp70 (HspA1A), sequence (P0DMV8 whole entry): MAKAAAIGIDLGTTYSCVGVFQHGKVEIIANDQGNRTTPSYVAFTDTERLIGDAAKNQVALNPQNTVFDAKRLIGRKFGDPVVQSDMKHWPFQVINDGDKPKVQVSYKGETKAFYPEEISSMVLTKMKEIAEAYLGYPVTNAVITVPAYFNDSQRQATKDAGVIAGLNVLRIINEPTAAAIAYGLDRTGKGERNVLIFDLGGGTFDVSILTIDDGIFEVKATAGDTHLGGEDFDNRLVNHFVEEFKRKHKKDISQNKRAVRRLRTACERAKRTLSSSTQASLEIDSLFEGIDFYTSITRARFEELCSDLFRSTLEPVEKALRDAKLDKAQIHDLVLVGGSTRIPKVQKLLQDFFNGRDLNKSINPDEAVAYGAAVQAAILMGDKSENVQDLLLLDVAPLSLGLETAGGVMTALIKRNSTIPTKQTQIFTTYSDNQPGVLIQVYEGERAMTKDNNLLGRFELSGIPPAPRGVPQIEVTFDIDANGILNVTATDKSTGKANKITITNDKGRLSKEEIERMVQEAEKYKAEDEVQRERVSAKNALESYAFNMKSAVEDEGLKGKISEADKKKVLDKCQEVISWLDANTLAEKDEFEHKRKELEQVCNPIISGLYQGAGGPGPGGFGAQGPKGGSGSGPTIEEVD
substance,measurement,value
human Hsp70 (HspA1A) (from UniProt P0DMV8 1-641) (natural protein),total cross-links between the JD and HspA1A across three XL–MS experiments,14 cross-links
